Test results: paper PMC4811492, “Dimeric peroxiredoxins are druggable targets in human Burkitt lymphoma” (Oncotarget, 2015)

Legend:
[1] = molecular target: the molecule itself; experiment: cross-linking; Raji or Ramos cells cultured with SK053 (10 uM, or indicated concentrations for 24 h) or SK-bio (55 uM, time course); lysates resolved under denaturing and reducing conditions, immunoblot with PRDX-specific antibodies; monomer ~22 kDa, dimer ~44 kDa
[2] = molecular target: the molecule itself; experiment: cross-linking; recombinant human PRDX1 incubated with SK-bio in vitro (Supplementary Figure S7); dimer formation less efficient than in cells
[3] = molecular target: the molecule itself; experiment: cross-linking; HEK293T cells transfected with pLenti6-PRDX1-V5 (WT or Cys-to-Ala variants), 24 h later 41 uM SK053 or DMSO for 24 h; immunoblot with anti-V5 and anti-PRDX1

B1: peroxiredoxin 1 (PRDX1), endogenous in Burkitt lymphoma cells (enzyme, human (endogenous in Raji and Ramos), UniProt Q06830 1-199, looked up)
chain: MSSGNAKIGHPAPNFKATAVMPDGQFKDISLSDYKGKYVVFFFYPLDFTFVCPTEIIAFSDRAEEFKKLNCQVIGASVDSHFCHLAWVNTPKKQGGLGPMNIPLVSDPKRTIAQDYGVLKADEGISFRGLFIIDDKGILRQITVNDLPVGRSVDETLRLVQAFQFTDKHGEVCPAGWKPGSDTIKPDVQKSKEYFSKQK
notes: peroxiredoxin 1, human, endogenous in Raji and Ramos Burkitt lymphoma cells; source: endogenous, Raji and Ramos cells
stoichiometry N [1]: 2

B2: peroxiredoxin 2 (PRDX2), endogenous in Burkitt lymphoma cells (enzyme, human (endogenous in Raji and Ramos), UniProt P32119 1-198, looked up)
chain: MASGNARIGKPAPDFKATAVVDGAFKEVKLSDYKGKYVVLFFYPLDFTFVCPTEIIAFSNRAEDFRKLGCEVLGVSVDSQFTHLAWINTPRKEGGLGPLNIPLLADVTRRLSEDYGVLKTDEGIAYRGLFIIDGKGVLRQITVNDLPVGRSVDEALRLVQAFQYTDEHGEVCPAGWKPGSDTIKPNVDDSKEYFSKHN
notes: peroxiredoxin 2, human, endogenous in Raji and Ramos cells; source: endogenous, Raji and Ramos cells
stoichiometry N [1]: 2

B3: peroxiredoxin 3 (PRDX3), endogenous in Burkitt lymphoma cells (enzyme, human (endogenous in Raji and Ramos), UniProt P30048 62-256, looked up)
chain: APAVTQHAPYFKGTAVVNGEFKDLSLDDFKGKYLVLFFYPLDFTFVCPTEIVAFSDKANEFHDVNCEVVAVSVDSHFSHLAWINTPRKNGGLGHMNIALLSDLTKQISRDYGVLLEGSGLALRGLFIIDPNGVIKHLSVNDLPVGRSVEETLRLVKAFQYVETHGEVCPANWTPDSPTIKPSPAASKEYFQKVNQ
notes: peroxiredoxin 3, human, endogenous in Raji and Ramos cells; source: endogenous, Raji and Ramos cells
stoichiometry N [1]: 2

B4: peroxiredoxin 4 (PRDX4), endogenous in Burkitt lymphoma cells (enzyme, human (endogenous in Raji and Ramos), UniProt Q13162 38-271, looked up)
chain: WETEERPRTREEECHFYAGGQVYPGEASRVSVADHSLHLSKAKISKPAPYWEGTAVIDGEFKELKLTDYRGKYLVFFFYPLDFTFVCPTEIIAFGDRLEEFRSINTEVVACSVDSQFTHLAWINTPRRQGGLGPIRIPLLSDLTHQISKDYGVYLEDSGHTLRGLFIIDDKGILRQITLNDLPVGRSVDETLRLVQAFQYTDKHGEVCPAGWKPGSETIIPDPAGKLKYFDKLN
notes: peroxiredoxin 4, human, endogenous in Raji and Ramos cells; source: endogenous, Raji and Ramos cells
stoichiometry N [1]: 2

B5: recombinant human PRDX1 (enzyme, UniProt Q06830 1-199, looked up)
chain: MSSGNAKIGHPAPNFKATAVMPDGQFKDISLSDYKGKYVVFFFYPLDFTFVCPTEIIAFSDRAEEFKKLNCQVIGASVDSHFCHLAWVNTPKKQGGLGPMNIPLVSDPKRTIAQDYGVLKADEGISFRGLFIIDDKGILRQITVNDLPVGRSVDETLRLVQAFQFTDKHGEVCPAGWKPGSDTIKPDVQKSKEYFSKQK
notes: peroxiredoxin 1, human, recombinant
stoichiometry N [2]: 2

B6: V5-tagged human wild-type PRDX1 (enzyme, UniProt Q06830 1-199, looked up)
chain: MSSGNAKIGHPAPNFKATAVMPDGQFKDISLSDYKGKYVVFFFYPLDFTFVCPTEIIAFSDRAEEFKKLNCQVIGASVDSHFCHLAWVNTPKKQGGLGPMNIPLVSDPKRTIAQDYGVLKADEGISFRGLFIIDDKGILRQITVNDLPVGRSVDETLRLVQAFQFTDKHGEVCPAGWKPGSDTIKPDVQKSKEYFSKQK
notes: peroxiredoxin 1, human, wild type, expressed from pLenti6/V5-DEST-PRDX1; The vector pLenti6/V5-DEST usually adds the V5 tag at the C-terminus (surmised; the plasmid is printed as PRDX1-V5); also called PRDX1-V5; WT; source: HEK293T, transfected (pLenti6-PRDX1-V5), in cells
stoichiometry N [3]: 2

B7: native untagged PRDX1, endogenous in HEK293T cells (enzyme, human (endogenous in HEK293T), UniProt Q06830 1-199, looked up)
chain: MSSGNAKIGHPAPNFKATAVMPDGQFKDISLSDYKGKYVVFFFYPLDFTFVCPTEIIAFSDRAEEFKKLNCQVIGASVDSHFCHLAWVNTPKKQGGLGPMNIPLVSDPKRTIAQDYGVLKADEGISFRGLFIIDDKGILRQITVNDLPVGRSVDETLRLVQAFQFTDKHGEVCPAGWKPGSDTIKPDVQKSKEYFSKQK
notes: peroxiredoxin 1, human, endogenous untagged protein of HEK293T cells; also called native untagged form; source: endogenous, HEK293T cells
stoichiometry N [3]: 2

B8: V5-tagged human PRDX1 C83A (enzyme, UniProt Q06830 1-199, looked up)
chain: MSSGNAKIGHPAPNFKATAVMPDGQFKDISLSDYKGKYVVFFFYPLDFTFVCPTEIIAFSDRAEEFKKLNCQVIGASVDSHFAHLAWVNTPKKQGGLGPMNIPLVSDPKRTIAQDYGVLKADEGISFRGLFIIDDKGILRQITVNDLPVGRSVDETLRLVQAFQFTDKHGEVCPAGWKPGSDTIKPDVQKSKEYFSKQK
notes: peroxiredoxin 1, human, Cys83 (outside the active site) changed to Ala; The vector pLenti6/V5-DEST usually adds the V5 tag at the C-terminus (surmised); source: HEK293T, transfected (pLenti6-PRDX1-V5), in cells
stoichiometry N [3]: 2
